In assay [1] the target is T1, human IL-13 (human, UniProt P35225 25-146, limits assumed).
T1 construct: The KinExA antigen was detected with an anti-HIS IgG, so it probably carried a HIS tag; also called Interleukin-13; hIL-13
Kind of assay: SPR (Biacore 8K+), antibody captured on anti-human Fc CM4 chip, human IL-13 0.6-10 nM as analyte, 37 C, 1:1 fit. In general terms: SPR reads the build-up and loss of mass on a sensor chip optically.

The target in assay [2] is T1, human IL-13. In words: SPR (Biacore 8K+), antibody captured, human IL-13 as analyte, 37 C; less than 5% decay in 5,400 s, KD estimated.
In assay [3] the target is T1, human IL-13. In words: KinExA, 25 C.
The target in assay [4] is cynomolgus IL-13 (cynomolgus, UniProt Q0PW92 21-132). Kind of assay: KinExA, solution equilibrium, free antigen captured on Ref1-coated beads, 25 C.
cynomolgus IL-13, sequence (Q0PW92 entry or part of it): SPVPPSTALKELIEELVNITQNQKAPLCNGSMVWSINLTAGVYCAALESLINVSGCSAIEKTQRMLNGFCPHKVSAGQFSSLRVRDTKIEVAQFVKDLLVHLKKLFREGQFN
The target in assay [5] is T1, human IL-13. Described as above.
Assay [6] deals with T2, mouse IL-13 (mouse, UniProt P20109 19-131, limits assumed).
T2 construct: also called recombinant mouse IL-13
T2 sequence (looked up): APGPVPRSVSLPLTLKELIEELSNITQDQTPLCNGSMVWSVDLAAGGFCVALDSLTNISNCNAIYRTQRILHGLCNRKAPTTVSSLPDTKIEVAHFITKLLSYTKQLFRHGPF
Kind of assay: SPR (Biacore 8K+), antibody captured on anti-human IgG Fc chip, IL-13 as analyte, 25 C.

The target in assay [7] is T1, human IL-13. Kind of assay: SPR array (Carterra LSA), antibody captured on anti-human pAb HC30M chip, human IL-13 0.05-100 nM as analyte, 25 C, 1:1 fit.
Assay [8] deals with T1, human IL-13. In words: cell-based or functional assay.
The target of assay [9] is T1, human IL-13. Kind of assay: SPR (Biacore 8K+), antibody captured on anti-human pAb CM4 chip, human IL-13 0.6-10 nM as analyte, 37 C, 1:1 fit.
The target in assay [10] is T1, human IL-13. In words: cell-based or functional assay. This is another data set of the same source.

Some results are limits rather than exact numbers.

T1 sequence (P35225 other isoform, or with tags, fused parts or gaps limits assumed): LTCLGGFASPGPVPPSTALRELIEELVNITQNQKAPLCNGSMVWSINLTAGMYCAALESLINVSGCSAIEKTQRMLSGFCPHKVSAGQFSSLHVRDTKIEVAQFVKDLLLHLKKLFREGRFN

B1: AbG (antibody, human IgG1, kappa)
heavy: QVTLRESGPALVKPTQTLTLTCTVSGASLSAYSVNWIRQPPGKALEWLAMIWGDGKIVYNSALKSRLTISKDTSKNQVVLTMTNMDPVDTATYYCAGDGYFPYAMDNWGQGSLVTVSSASTKGPSVFPLAPSSKSTSGGTAALGCLVKDYFPEPVTVSWNSGALTSGVHTFPAVLQSSGLYSLSSVVTVPSSSLGTQTYICNVNHKPSNTKVDKRVEPKSCDKTHTCPPCPAPELLGGPSVFLFPPKPKDTLYITREPEVTCVVVDVSHEDPEVKFNWYVDGVEVHNAKTKPREEQYNSTYRVVSVLTVLHQDWLNGKEYKCKVSNKALPAPIEKTISKAKGQPREPQVYTLPPSREEMTKNQVSLTCLVKGFYPSDIAVEWESNGQPENNYKTTPPVLDSDGSFFLYSKLTVDKSRWQQGNVFSCSVMHEALHNHYTQKSLSLSPGK
light: DIVMTQSPDSLSVSLGERATINCRASKSVDSYGNSYMHWYQQKPGQPPKLLIYLASNLESGVPDRFSGSGSGTDFTLTISSLQAEDVAVYYCQQNNEDPRTFGGGTKVEIKRTVAAPSVFIFPPSDEQLKSGTASVVCLLNNFYPREAKVQWKVDNALQSGNSQESVTEQDSKDSTYSLSSTLTLSKADYEKHKVYACEVTHQGLSSPVTKSFNRGEC
notes: also called Antibody AbG
For B1, the Kd is 12.6 pM in assay [1]; less than 15 pM in [2]; 0.72 pM in assay [4]; 0.23 pM in [5]; less than 100 pM in [7]. In addition, the koff turned out to be 7.68e-06 s⁻¹ in assay [1], 1.77e-06 s⁻¹ in assay [4] and 4.8e-07 s⁻¹ in assay [5]. Besides, the kon in assay [1] was 639000 M⁻¹ s⁻¹; in assay [4], 2.46e+06 M⁻¹ s⁻¹; in assay [5], 2.06e+06 M⁻¹ s⁻¹. Further, the “fold higher affinity than Ref2” value in [3] worked out at 40 fold. For the same molecule, in [6], the binding result is recorded as “no binding”. Also, in assay [8], the “IC50, HEK-Blue IL-13Ra1/IL-4Ra STAT6-SEAP reporter assay” value stood at 0.174 µg/mL.

B2: Ref1 (antibody, human IgG1, kappa)
heavy: QVTLRESGPALVKPTQTLTLTCTVSGFSLSAYSVNWIRQPPGKALEWLAMIWGDGKIVYNSALKSRLTISKDTSKNQVVLTMTNMDPVDTATYYCAGDGYYPYAMDNWGQGSLVTVSSASTKGPSVFPLAPSSKSTSGGTAALGCLVKDYFPEPVTVSWNSGALTSGVHTFPAVLQSSGLYSLSSVVTVPSSSLGTQTYICNVNHKPSNTKVDKRVEPKSCDKTHTCPPCPAPELLGGPSVFLFPPKPKDTLYITREPEVTCVVVDVSHEDPEVKFNWYVDGVEVHNAKTKPREEQYNSTYRVVSVLTVLHQDWLNGKEYKCKVSNKALPAPIEKTISKAKGQPREPQVYTLPPSREEMTKNQVSLTCLVKGFYPSDIAVEWESNGQPENNYKTTPPVLDSDGSFFLYSKLTVDKSRWQQGNVFSCSVMHEALHNHYTQKSLSLSPGK
light: DIVMTQSPDSLSVSLGERATINCRASKSVDSYGNSFMHWYQQKPGQPPKLLIYLASNLESGVPDRFSGSGSGTDFTLTISSLQAEDVAVYYCQQNNEDPRTFGGGTKVEIKRTVAAPSVFIFPPSDEQLKSGTASVVCLLNNFYPREAKVQWKVDNALQSGNSQESVTEQDSKDSTYSLSSTLTLSKADYEKHKVYACEVTHQGLSSPVTKSFNRGEC
notes: hIgG1-YTE
B2: the Kd in assay [1] is 55.1 pM; in assay [9], 48.4 pM; in assay [4], 0.52 pM; in [5] it was 6.13 pM; in [7] it was less than 100 pM. The koff turned out to be 2.66e-05 s⁻¹ in assay [1], 2.64e-05 s⁻¹ in assay [9], 1.09e-06 s⁻¹ in assay [4] and 9.37e-06 s⁻¹ in assay [5]. Besides, the kon was found to be 483000 M⁻¹ s⁻¹ in assay [1], 594000 M⁻¹ s⁻¹ in assay [9], 2.09e+06 M⁻¹ s⁻¹ in assay [4] and 1.53e+06 M⁻¹ s⁻¹ in [5]. For the same molecule, in [8], the “IC50, HEK-Blue IL-13Ra1/IL-4Ra STAT6-SEAP reporter assay” value is 0.143 µg/mL.

B3: Ref3 (antibody, human IgG1, kappa)
heavy: QVTLRESGPALVKPTQTLTLTCTVSGFSLSAYSVNWIRQPPGKALEWLAMIWGDGKIVYNSALKSRLTISKDTSKNQVVLTMTNMDPVDTATYYCAGDGYYPYAMDNWGQGSLVTVSSASTKGPSVFPLAPSSKSTSGGTAALGCLVKDYFPEPVTVSWNSGALTSGVHTFPAVLQSSGLYSLSSVVTVPSSSLGTQTYICNVNHKPSNTKVDKRVEPKSCDKTHTCPPCPAPEFEGGPSVFLFPPKPKDTLYITREPEVTCVVVDVSHEDPEVKFNWYVDGVEVHNAKTKPREEQYNSTYRVVSVLTVLHQDWLNGKEYKCKVSNKALPASIEKTISKAKGQPREPQVYTLPPSREEMTKNQVSLTCLVKGFYPSDIAVEWESNGQPENNYKTTPPVLDSDGSFFLYSKLTVDKSRWQQGNVFSCSVMHEALHNHYTQKSLSLSPGK
light: DIVMTQSPDSLSVSLGERATINCRASKSVDSYGNSFMHWYQQKPGQPPKLLIYLASNLESGVPDRFSGSGSGTDFTLTISSLQAEDVAVYYCQQNNEDPRTFGGGTKVEIKRTVAAPSVFIFPPSDEQLKSGTASVVCLLNNFYPREAKVQWKVDNALQSGNSQESVTEQDSKDSTYSLSSTLTLSKADYEKHKVYACEVTHQGLSSPVTKSFNRGEC
In assay [1], B3 showed a Kd of 50.7 pM, a koff of 2.52e-05 s⁻¹ and a kon of 501000 M⁻¹ s⁻¹. For the same molecule, in assay [10], the “Mean IC50 (nM) Donor 1, Phospho-STAT6 assay in human CD14+ monocytes” value stood at 32.2 nM; the “Mean IC50 (nM) Donor 2, Phospho-STAT6 assay in human CD14+ monocytes” value stood at 31.3 nM; the “Mean IC50 (nM) Donor 3, Phospho-STAT6 assay in human CD14+ monocytes” value is 33.9 nM. Also, the binding result in [6] was “no binding”.

Usually Kd stands for the concentration at which binding is half-saturated. The term koff denotes the rate constant with which the complex falls apart. Low readings indicate a long-lived complex, high ones a short-lived complex. In general, kon refers to the second-order rate constant of association.
